Experimental data published in US10266631B2, “Method for preparing peptide-polymer conjugate with stabilized α-helix secondary structure and peptide-polymer conjugate prepared thereby” (INDUSTRY-ACADEMIC COOPERATION FOUNDATION, YONSEI UNIVERSITY, priority 2016, dated 2019).
* marks the point of attachment. Acryloyl = C=CC(=O)*

Experiment: Circular dichroism (CD) spectroscopy of α-helix secondary structure
Format: physicochemical
Conditions: 25° C.
Protocol: CD spectra were recorded using a Chirascan circular dichroism spectrometer equipped with a Peltier temperature controller (Applied Photophysics Ltd.). The CD spectra of peptides were recorded at 190-260 nm.
The temperature was 25° C. and the peptide concentration was 6 μM.
The α-helix peptide substituted with an acryloyl group prepared in Preparation Example 1 (bisAAm-p53) was dissolved in a 10% HFIP solution (based on final concentration). After mixing with […] acrylamide, a peptide-polymer conjugate was prepared through free radical induced polymerization by adding ammonium persulfate (APS) and N,N,N′,N′-tetramethylethylenediamine (TEMED). The prepared 9 μM α-helix peptide multimer was diluted with a 0.2% HIFP solution.
Before CD spectrum measurement, HFIP was completely evaporated from the samples through centrifugation.

Preparation Example 1: p53-derived peptide Ac-QSQQTFKNLWRLLKQN-NH2 with both lysine ε-amines (i, i+7) acryloylated; FIG. 16A (Ac-QSQQTFK(Acryloyl)NLWRLLK(Acryloyl)QN-NH2; SMILES C=CC(=O)NCCCC[C@H](NC(=O)[C@H](CC(C)C)NC(=O)[C@H](CC(C)C)NC(=O)[C@H](CCCNC(=N)N)NC(=O)[C@H](Cc1c[nH]c2ccccc12)NC(=O)[C@H](CC(C)C)NC(=O)[C@H](CC(N)=O)NC(=O)[C@H](CCCCNC(=O)C=C)NC(=O)[C@H](Cc1ccccc1)NC(=O)[C@@H](NC(=O)[C@H](CCC(N)=O)NC(=O)[C@H](CCC(N)=O)NC(=O)[C@H](CO)NC(=O)[C@H](CCC(N)=O)NC(C)=O)[C@@H](C)O)C(=O)N[C@@H](CCC(N)=O)C(=O)N[C@@H](CC(N)=O)C(N)=O)
α-helix secondary structure (CD spectrum) (10% HFIP solution (HFIP:water=1:9, v/v), peptide 6 μM (FIG. 4)): stabilized | α-helix secondary structure (CD spectrum) (distilled water, peptide 6 μM (FIG. 3)): not stabilized but unfolded
